# Measurements published in US20220073643A1.
# Molecular target: Claudin18.2-His protein (human)
# Experiment: indirect ELISA on coated Claudin18.2-His
row,EC50,Binder
1,0.0197 µg/mL,"259B4D4 (antibody, V domains shown) VH: EIQLQQSGPELMKPGASVRISCKASGYSFTSYYMHWMKQSHVKSLEWIGYIDPFNGNTRYNQKFKDKATLTVDKSSTTAYMHLSSLTSEDSAVYFCASLRFFAYWGQGTLVTVSA VL: DIVMTQSPSSLTVTAGEKVTMSCNSSQSLLNSGNQKNYLTWYQQKPGQPPKLLIYWASSRESGVPDRFTGSGSGTDFTLTISTVQAEDLAVYYCQNDYSFPLTFGAGTRLELK"
2,0.0233 µg/mL,"273F3D4 (antibody, V domains shown) VH: QVQLKESGPGLVAPSQSLSITCTVSGFALTTYGVSWVRQPPGKGLEWLGVIWGDGSTHYHSALISRLSIRKDNSKSQVFLKLNSLQTDDTATYYCAKPGRGNAMDYWGQGTSVTVSS VL: DIVMSQSPSSLTVTAGEKVTMSCKSSQSLLNSGNQKNYLTWYQQKPGQSPKLLIYWASTRESGVPDRFTGSGSGTDFTLTISSMQAEDLAVYYCQNDYIYPLTFGAGTMLELK"
3,0.0113 µg/mL,"267B2C5 (antibody, V domains shown) VH: QVQLKESGPGLVAPSQSLAITCTVSGFSLTTYGVSWVRQPPGKGLEWLGVIWGDGSTHYHSALISRLSIRKDNSKSQVFLKVNSLQTDDTATYYCGKPGRGNAMDYWGQGTSVTVSS VL: DIVMTQSPSSLTVTAGEKVTMSCKSSQSLLNSGNQKNYLTWYQQKPGQSPKLLIYWASTRESGVPDRFTGSGSGTDFTLTISSVQAEDLAVYYCQNDYIYPLTFGGGTTLELK"
4,0.0168 µg/mL,"266B11F7 (antibody, V domains shown) VH: QVQMKESGPGLVAPSQSLSITCTVSGFSLTTYGVTWVRQPPGKGLEWLGVIWGDGSTNYHSALTSRLRISKDKSKSQVFLKLSSLQTDDTATYYCAKPGRGNALDYWGQGTSVTVSS VL: DIVMTQSPSSLTVTAGEKVTMRCKSSQSLLNSGNQKNYLTWYQQKPGQPPKLLVYWASTRESGVPDRFTGSGSGTDFTLTVSSVQAEDLAVYYCQNDYIFPLTFGAGTKLELK"
5,0.00822 µg/mL,"267H5F12 (antibody, V domains shown) VH: QAYLQQSGAELVRSGASVKMSCKASGYTFTSHNMHWVKQTPGQGLEWIGYISPGNGYTNYNQKFRGKATLTADTSSSTAYMQISSLTSEDSAVYFCTRDYYGNSFTYWGQGTLVTVSA VL: DIVMTQSPSSLTEKAGERVSMSCKSSQSLFNSGNQKNYLTWYQQKPGQPPKLLIYWASTRESGVPDRFTGSGSGTEFTLTISSVQAEDLAVYYCQNNYWFPFTFGAGTKLELK"
6,0.0113 µg/mL,"263E9F3 (antibody, V domains shown) VH: EIQVQQSGPELMKPGASVKISCRSSGYSFTSYYIHWVKQSRGKSLEWIGYIDPFSGGTRYNQKFEGKATLTVDKSSTTAYMHLSSLTSEDSAVYYCASLRFFAYWGQGTLVTVSA VL: DIVMTQSPSSLTVTAGEKVTMTCKSSQSLLNSGNQENYLTWYQQKPGQPPELLISRASTRQSGVPDRFTGSGSGTDFTLTISSVQTEDLAVYYCQNDYSYPLTFGAGTKLELK"
7,0.0252 µg/mL,"254A8D5 (antibody, V domains shown) VH: EVMLVESGGGLVKPGGSLKLSCAASGFTFSSYTVSWVRQTPEKRLEWVATSIVGSTYTYFPDSVKGRFTISRDFAKNTLFLQMSSLRSEDTAMYYCSRLGRGNAMDYWGQGTSVSVSS VL: DIVMTQSPSSLTVTAGEKVTLNCRSSQSLLNSGNQKNYLTWYQQKPGQPPKLLIYWASTRESGVPDRFTGSGSGTDFTLTISSVQADDLAVYYCQNGYSYPFTFGSGTKLEIK"
8,0.0201 µg/mL,"273C10E5 (antibody, V domains shown) VH: QVQLQQSGAELVKPGASVKLSCKASGYTFTSFGINWLRQRPEQGLEWIGWIFPGDGNSKYNENFKGKATLTTDKSSSTAYMQVTRLTSEDSAVYFCARFYYGNSFANWGQGTLVTVSA VL: DIVMTQSPSSLTVTAGEKVTMSCKSSQSLLNSGNQKNYLTWYQQKPGQPPKLLIYWAATRESGVPDRFAGSGSGTDFTLTISSVQAEDLAVYYCQNDYFYPFTFGAGTKLELK"
9,0.0133 µg/mL,"256C3D3 (antibody, V domains shown) VH: QAYLQQSGAELVRSGASVKMSCKASGYAFTSHNMHWVKQTPGQGLEWIGYISPGNGYTNYNQKFRGKATLTADTSSSTAYMQIGSLTSEDSAVYFCTRDYYGNSFAYWGQGTLVTVSA VL: DIVMTQSPSSLTEKAGERVSMSCKSSQSLFNSGNQKNYLTWYQQKPGQPPKLLIYWASTRESGVPDRFTGSGSGTDFTLTISSVQAEDLAVYYCQNNYWFPFTFGAGTKLELK"
10,0.0438 µg/mL,"194A2F7 (antibody, V domains shown) VH: QIQLVQSGPELKKPGETVKISCKASGYTFTDYLIHWVKQAPGKGLKWMGWINTETGEPTYADDFKGRFALSLETSASTACLQINNLKNEDTATYFCARIYYGNSFDYWGQGTTLTVSS VL: DIVMTQSPSSLPVTAGEKVTMTCKSSQNLLNSGNQKSYLTWYQQKPGQPPKLLIYWASTRETGVPDRFTGSGSGTDFTLTISSVQAEDLAVYYCQNAYRFPFTFGAGTRLELK"

# The remaining lines, values behind:
row,Binder,EC50
1,"260G9E8 (antibody, V domains shown) VH: QADLQQSGAELVRSGASVKMSCKASGYTFASHNMHWVKQTPGQGLEWIGYIYPGNGGTKYNQKFTGKATLTADTSSSTAYMQITSLTSEDSAVYFCARDYYGNSFAYWGQGTLVTVSA VL: DIVMTQSPSSLTEKAGEKVSMRCKSSQSLLNSGNQKNYLTWYQQKPGQPPKLLIYWASTRESGVPDRFTGSGSGTDFTLTISSVQADDLAVYYCQNDYMFPFTFGAGTKLELK",0.0358 µg/mL
2,"262H9H6 (antibody, V domains shown) VH: QAYLQQSGAELVRSGASVKMSCKASGYTFTSHNMHWVKQTPGQGLEWIGYISPGNGYTNYNQKFRGKATLTADTSSSTAYMQISSLTSEDSAVYFCTRDYYGNSFTYWGQGTLVTVSA VL: DIVMTQSPSSLTEKAGERVSMSCKSSQSLFNSGNQKNYLTWYQQKPGQPPKLLIYWASTRESGVPDRFTGSGSGTEFTLTISSVQAEDLAVYYCQNNYWFPFTFGAGTKLELK",0.014 µg/mL
3,"252C10F6 (antibody, V domains shown) VH: QVHLKQSGRGLVQPSQSLSITCTVSGFSLPNYGVHWVRQPPGKGLEWLGVIWSGGNTDYNTVFKARLSITKDNSKSQVFFKMNSLQADDTAIYYCARNLYGNYDYAMDYWGQGTSVTVSS VL: DIVMTQSPATLSVTPGDRVSLSCRASQSISDYLHWYQQKSHESPRLLIKYASQSISGIPSRFSGSGSGSEFTLSINSVEPEDVGVYYCQNGHSFPFTFGSGTKLEIK",1.66 µg/mL
4,"252E7C9 (antibody, V domains shown) VH: QTYLQQSGAELVRSGASVKMSCRTSGYSFTSHNMHWVKQTPGQGLEWIGYIYPGNGGSYYNQKFKGKAILTADTSSSTAYMQISSLTSEDSAVYFCTRDYYGNSFVYWGQGTLVTVSA VL: DVVMTQSPSSLTEKTGEKVSMSCKSSQSLLNSGNQKNYLTWYQQKPGQPPKLLIYWASTRESGVPDRFTGSGSGTDFTLTISSLQTEDLAIYYCQNNFRYPFTFGAGTKLELK",0.00869 µg/mL
5,"257G7F7 (antibody, V domains shown) VH: QAYLQQSGAELVRSGASVKMSCKASGYTFTSHNLHWVKQTPGQGLEWIGYIYPGNGNTNYNQKFKGKATLTADTSSSTAYMQISSLTSEDSAVYFCTRDYYGNSFAYWGQGTLVTVSA VL: DIVMTQSPSSLTEKAGERVSMSCKSSQSLFNSGNQKNYLTWYQQKPGQPPKLLIYWASTRESGVPDRFTGSGSGTDFTLTISSVQAEDLAVYYCQNNYWFPFTFGAGTKLELK",0.0198 µg/mL
6,"258D11C4 (antibody, V domains shown) VH: QAYLQQSGAELVRSGASVKMSCKASGYTFSSHNMHWVKQTPGQGLEWIGYIYPGNGGTNYNQKFKGKATLTADTSSSTAYMQISSLTSEDSAVYFCTRDYYGNSFAYWGQGTLVTVSA VL: DIVMTQSPSSLTEKAGERVSMSCKSSQSLFNSGNQKNYLTWYQQKPGQPPKLLIYWASTRQSGVPDRFTGSGSGTDFTLTISSVQAEDLAVYYCQNDYWFPFTFGAGTKLELK",0.0153 µg/mL
7,"260F8A6 (antibody, V domains shown) VH: QAYLQQSGAELVRSGASVKMSCRASGYTFTSHNMHWVKQTPGQGLEWIGYIYPGNGNTYYNQKFKGKATLTADTSSNTAYMQINSLTSEDSAVYFCVRDYYGNSFVYWGQGTLVTVSA VL: DVVMTQSPSSLTEKTGEKVSMSCKSSQSLLNSGNQKNYLTWYQQKPGQPPKLLIYWASTRESGVPDRFIGSGSGTDFTLTISSLQTEDLAVYYCQNNYMYPFTFGAGTKLELK",0.0151 µg/mL
8,"257B1G9 (antibody, V domains shown) VH: QAYLQQSGAELVRSGASVKMSCKASGYTFTSHNMHWVKQTPGQGLEWIGYIYPGNGGTNYNQKFKGKATLTADTSSSTAYMQISSLTSEDSAVYFCTRDYYGNSFAYWGQGTLVTVSA VL: DIVMTQSPSSLTERAGERVSMSCKSSQSLFNSGNQKNYLTWYQQKPGQPPKLLIYWASTRESGVPDRFTGSGSGTDFTLTISSVQAEDLAVYYCQNDYRYPFTFGAGTKLELK",0.00793 µg/mL
9,"257G7B9 (antibody, V domains shown) VH: QAYLQQSGAELVRSGASVKMSCKASGYTFTSHNLHWVKQTPGQGLEWIGYIYPGNGNTNYNQKFKGKATLTADTSSSTAYMQISSLTSEDSAVYFCTRDYYGNSFAYWGQGTLVTVSA VL: DIVMTQSPSSLTEKAGERVSMSCKSSQSLFNSGNQKNYLTWYQQKPGQPPKLLIYWASTRESGVPDRFTGSGSGTDFTLTISSVQAEDLAVYYCQNNYWFPFTFGAGTKLELK",0.00978 µg/mL
10,"252F1B10 (antibody, V domains shown) VH: QAYLQQSGAELVRSGASVKMSCKASGYTFTSHNMHWVKQTPGQGLEWIGYIYPGNGGTNYNQKFKGKATLTADTSSSTAYMQINSLTSEDSAVYFCTRDYYGNSFAYWGQGTLVTVSA VL: DIVMTQSPSSLTEKAGERVSMSCKSSQSLFNSGNQKNYLTWYQQKPGQPPKLLIYWASTRESGVPDRFTGSGSGTDFTLTISSVQAEDLAVYYCQNDYRYPFTFGAGTKLELK",0.00723 µg/mL
11,"265E6G2 (antibody, V domains shown) VH: QAYLQQSGAELVRSGASVKMSCKASGYTFTSYNMHWVKQTPGQGLEWIGYIYPGNGGTNYNQKFKGKATLTADTSSSTAYMQISSLTSEDSAVYFCARDYYGNSFAYWGQGTLVTVSA VL: DLVMTQSPSSLTVTAGEKVTMSCKSSQSLLNSGNQKNYLTWYQQKPGQPPKLLIYWASTRESGVPDRFTGSGSGTDFTLTISNIQAEDLAVYYCQNDYSYPLPFGAGTKLELR",0.0183 µg/mL
12,"257F1E11 (antibody, V domains shown) VH: QAYLQQSGAELVRSGASVKMSCKASGYTFTSHNIHWVKQTPRQGLEWIGYIYPGNGGTNYNQKFKGKATLTADTSSSTAYMQISSLTSEDSAVYFCTRDYYGNSFAYWGQGTLVTVSA VL: DIVMTQSPSSLTEKAGERVSMSCKSSQSLFNSGNQKNYLTWYQQKPGQPPKLLIYWASTRESGVPDRFTGSGSGTDFTLTISSVQAEDLAIYYCQNDYWYPFTFGAGTKLELK",0.0262 µg/mL
